The values below come from paper PMC3561323 (PLoS ONE, 2013).

For the experiment, the target named is integrin linked kinase (ILK), full-length human (human, UniProt Q13418 1-452). Put plainly: SEC; purified IPPmin complex on a calibrated gel-filtration column (Superdex 200 10/300 GL); 20 mM Tris pH 7.5, 150 mM NaCl, 1 mM DTT. Particulars: both partners purified.
integrin linked kinase (ILK), full-length human, sequence (Q13418 whole entry): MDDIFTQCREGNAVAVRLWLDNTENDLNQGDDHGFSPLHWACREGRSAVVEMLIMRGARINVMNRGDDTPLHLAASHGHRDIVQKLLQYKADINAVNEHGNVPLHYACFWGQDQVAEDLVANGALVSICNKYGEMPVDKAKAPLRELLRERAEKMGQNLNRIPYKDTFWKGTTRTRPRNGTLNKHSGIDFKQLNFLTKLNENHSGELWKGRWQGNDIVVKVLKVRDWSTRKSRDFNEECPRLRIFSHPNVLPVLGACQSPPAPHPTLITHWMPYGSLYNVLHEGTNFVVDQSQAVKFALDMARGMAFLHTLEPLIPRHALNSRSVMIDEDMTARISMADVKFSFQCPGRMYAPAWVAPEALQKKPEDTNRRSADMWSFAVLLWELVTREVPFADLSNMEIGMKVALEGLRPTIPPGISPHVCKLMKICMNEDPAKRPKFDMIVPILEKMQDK

B1: LIM1 domain of PINCH1 (domain or fragment, human, UniProt P48059 6-68, looked up)
chain: ASATCERCKGGFAPAEKIVNSNGELYHEQCFVCAQCFQQFPEGLFYEFEGRKYCEHDFQMLFA
Take B1: the binding result is listed as “binds”.
